From patent US20240254222A1
Residue numbers refer to the chain shown, from its start.

B1: TPP-30791 (antibody, human IgG1, kappa, V domains shown)
VH: EVQLVESGGGLLQLGGSLRLSCAASGFTFSSYYMSWVRQAPGKGLEWVSTIIKSGGYAYYPDSVKDRFTISRDNSKNTLNLQMNSLRAEDTAVYYCVKGGQGAMDYWGQGTTVTVSS
VL: EIVLTQSPATLSLSPGERATLSCRASQSIGDYLHWYQQKPGQAPRLLIKYASQSISGIPARFSGSGSGTDFTLTISSLEPEDFAVYYCQQGYSFPYTFGGGTKLEIKR
B2: TPP-30789 (antibody, human IgG1, kappa, V domains shown)
VH: B1 VH with L12V, L14P, T28P, N80Y, N84S, K98R
VL: B1 VL with S76T
B3: TPP-30790 (antibody, human IgG1, kappa, V domains shown)
VH: B1 VH with L12V, N80Y
VL: B1 VL with K49Y
B4: TPP-30788 (antibody, human IgG1, kappa, V domains shown)
VH: B1 VH with L12V, L14P, N80Y, N84S, K98R
VL: B1 VL with S76T

Each binder was assayed against Human Semaphorin3G (Abnova) (human) (UniProt Q9NS98) (assay: ELISA, coated GST-Sema3G, antibody 0.00015-10 ug/ml).
Sequence of Human Semaphorin3G (Abnova) (human) (Q9NS98 23-782 limits assumed, form in doubt): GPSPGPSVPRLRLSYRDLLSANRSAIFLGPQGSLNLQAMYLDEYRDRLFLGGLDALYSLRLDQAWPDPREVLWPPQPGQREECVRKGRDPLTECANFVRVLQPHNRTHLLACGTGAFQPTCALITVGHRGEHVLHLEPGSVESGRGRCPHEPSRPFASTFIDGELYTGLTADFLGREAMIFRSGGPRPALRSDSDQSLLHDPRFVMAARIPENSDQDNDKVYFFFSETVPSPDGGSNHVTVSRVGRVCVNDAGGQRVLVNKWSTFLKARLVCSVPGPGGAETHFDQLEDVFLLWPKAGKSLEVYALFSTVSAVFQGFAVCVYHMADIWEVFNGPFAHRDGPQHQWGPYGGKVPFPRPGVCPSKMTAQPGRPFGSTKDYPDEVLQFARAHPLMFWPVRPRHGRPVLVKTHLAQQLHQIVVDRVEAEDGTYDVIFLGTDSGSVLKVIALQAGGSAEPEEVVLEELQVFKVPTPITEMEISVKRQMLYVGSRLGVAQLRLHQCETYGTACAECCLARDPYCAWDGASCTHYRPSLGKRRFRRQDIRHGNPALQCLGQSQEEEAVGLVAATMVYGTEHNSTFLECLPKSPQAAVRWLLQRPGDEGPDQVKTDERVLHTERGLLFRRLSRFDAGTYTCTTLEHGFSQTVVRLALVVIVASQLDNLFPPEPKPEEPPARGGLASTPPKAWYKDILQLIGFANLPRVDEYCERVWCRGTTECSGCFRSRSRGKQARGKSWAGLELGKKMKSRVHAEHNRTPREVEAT

Row | Binder | EC50 [µM]
1 | B1 | > 66.7
2 | B2 | > 66.7
3 | B3 | > 66.7
4 | B4 | > 66.7
